We go through 1 molecule from publication PMC5484772.

Bridges are numbered along the chain shown (N, C = ends). Where no end group is shown, it is not given here.

What all share (assay): SPR; competition in solution, Biacore T200: 796 nM (50 ug/ml) purified DiCo mixed with PfRon2L in serial 1:3 dilutions from 12.5 uM to 5.7 nM, incubated 4 h at room temperature; residual binding of free DiCo read on biotinylated PfRon2L immobilised on a Series S streptavidin chip; buffer control set to 100%
Experiment [1] addresses DiCo-Mix.
The target of experiment [2] is PfAMA1 diversity covering variant DiCo1.
Experiment [3] has as its target PfAMA1 diversity covering variant DiCo2.
Experiment [4] has as its target PfAMA1 diversity covering variant DiCo3.

B1: PfRon2L (peptide)
peptide: DITQQAKDIGAGPVASCFTTRMSPPQQICLNSVVNTALS
modifications: disulfide 17-29 (inferred)
In the case of B1, the PfRon2L concentration at full equilibrium saturation of 796 nM DiCo in experiment [1], in experiment [2], in experiment [3] and in experiment [4] was 12.5 µM each time. The PfRon2L concentration for almost full saturation of 796 nM DiCo in experiment [1], in experiment [2] and in experiment [3] was above 1000 nM in each case. For the same molecule, in experiment [4], the PfRon2L concentration for equilibrium saturation of 796 nM DiCo was above 10 µM.
